Legend:
[1] = molecular target: AdeS full cytoplasmic domain (HAMP-DHp-CA) (Acinetobacter baumannii); assay: SEC
[2] = molecular target: AdeS full cytoplasmic domain (HAMP-DHp-CA) (Acinetobacter baumannii); assay: SAXS
[3] = molecular target: AdeS histidine kinase transmitter domain (DHp-CA) (Acinetobacter baumannii); assay: SEC
[4] = molecular target: AdeS histidine kinase transmitter domain (DHp-CA) (Acinetobacter baumannii); assay: SAXS
purified protein = substrate: Nc1ncnc2c1ncn2[C@@H]1O[C@H](COP(=O)(O)OP(=O)(O)OP(=O)(O)O)[C@@H](O)[C@H]1O; assay: purified protein; conditions: autophosphorylation; hexameric cytoplasmic domain

Question: For “AdeS full cytoplasmic domain (HAMP-DHp-CA) (domain or fragment)”, which stoichiometry N [1] is on record?
Answer: 6

Question: And the stoichiometry N [2]?
Answer: 6

Question: Which results are given for “AdeS histidine kinase transmitter domain (DHp-CA) (domain or fragment)”?
Answer: stoichiometry N [3]: 2; stoichiometry N [4]: 2

B1: AdeS cytoplasmic domain (HAMP-DHp-CA) (Acinetobacter baumannii) (protein)
chain: KRFIVPINFLAEAAKKISHGDLSARAYDNRIHFAEMSELLYNFNDMAQKLEVSVKNAQVWNAAIAHELRTPITILQGRLQGIIDGVFKPDEVLFKSLLNQVEVLSHLVEDLRTLSLVENQQLRLNYELFDFKAVVEKVLKAFEDRLDQAKLVPELDLTSTPVYCDRRRIEQVLIALIDNAIRYSHAGKLKISSEVVSQNWILKIEDEGPGIATEFQDDLFKPFFRLEESRNKEFGGTGLGLAVVHAIIVALKGTIQYSNQGSKSIFTIKISMNN
Question: B1 was tested. Which Km (purified protein) did it give?
Answer: 5.25 ± 0.20 µM

Reference: paper PMC8169943
